1 molecule from patent US20110142812A1 (STC UNM, published 2011) can be followed below.

The target in test [1] is T1, human FcγRI (human, UniProt P12314 16-292, limits assumed).
T1 construct: also called CD64
Put plainly: surface plasmon resonance, human FcγR.

The target in test [2] is T2, mouse FcγRI on macrophages (mouse, UniProt P26151 25-404).
T2 construct: whole, on cells; The receptor is assigned by using macrophages from knockout mice; Other receptors may be present on these cells; also called FcγRI on mouse macrophages (from FcγRIIb-/- mice)
T2 sequence (looked up): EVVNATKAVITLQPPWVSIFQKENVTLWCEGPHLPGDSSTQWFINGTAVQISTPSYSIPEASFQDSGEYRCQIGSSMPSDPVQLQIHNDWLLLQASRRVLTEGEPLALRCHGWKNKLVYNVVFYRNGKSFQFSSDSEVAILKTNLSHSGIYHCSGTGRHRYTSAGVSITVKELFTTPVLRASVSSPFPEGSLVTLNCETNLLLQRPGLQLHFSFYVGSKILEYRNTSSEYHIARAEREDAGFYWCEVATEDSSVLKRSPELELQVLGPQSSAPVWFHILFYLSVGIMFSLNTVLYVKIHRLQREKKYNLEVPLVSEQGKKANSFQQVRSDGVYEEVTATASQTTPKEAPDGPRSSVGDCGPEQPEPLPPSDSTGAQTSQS
Put plainly: two-color flow cytometry on mouse peritoneal macrophages (FcγRIIb-/-), FITC-2C10 detection.

T1 sequence (P12314 16-292 limits assumed): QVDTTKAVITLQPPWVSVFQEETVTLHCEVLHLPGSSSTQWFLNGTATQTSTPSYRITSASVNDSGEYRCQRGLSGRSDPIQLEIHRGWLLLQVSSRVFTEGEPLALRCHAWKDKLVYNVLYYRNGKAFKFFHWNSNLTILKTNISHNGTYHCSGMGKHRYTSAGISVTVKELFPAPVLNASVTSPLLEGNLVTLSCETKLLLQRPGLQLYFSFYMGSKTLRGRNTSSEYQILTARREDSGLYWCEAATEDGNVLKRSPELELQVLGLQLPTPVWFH

B1: Y175L CRP (recombinant mutant C-reactive protein in which tyrosine 175 is replaced by leucine) (ligand)
chain: QTDMSRKAFVFPKESDTSYVSLKAPLTKPLKAFTVCLHFYTELSSTRGYSIFSYATKRQDNEILIFWSKDIGYSFTVGGSEILFEVPEVTVAPVHICTSWESASGIVEFWVDGKPRVRKSLKKGYTVGAEASIILGQEQDSFGGNFEGSQSLVGDIGNVNMWDFVLSPDEINTILLGGPFSPNVLNWRALKYEVQGEVFTKPQLWP
notes: also called CRP mutant Y175L; recombinant mutant CRP (Y175L)
In the case of B1, the binding result in test [1] and in test [2] was “binds” each time.
